In experiment [1] the target is T1, Claudin18.2 on cells (human, UniProt P56856-2 1-261).
T1 construct: whole, on cells; the cell line of each result is named under assay or readout
The experiment in a line: flow cytometry on 293T-Claudin18.2 cells, antibody at 3 µg/mL. For orientation: Flow cytometry measures light scatter and fluorescence of single cells or particles in a stream.
Experimental: (§1) Each candidate antibody was serially diluted with FACS buffer (sterile PBS, 0.2% BSA), and added to the 96-well round-bottom plate at 50 μL/well before an incubation at 4° C. for 1 h. The supernatant was discarded after centrifugation at 2000 rpm for 3 min.

In experiment [2] the target is T2, Claudin18.1 on cells (human, UniProt P56856 1-261).
T2 construct: whole, on cells
Put plainly: flow cytometry on 293T-Claudin18.1 cells, antibody at 0.375 µg/mL.
Experimental: as §1

The target in experiment [3] is T1, Claudin18.2 on cells. The experiment in a line: flow cytometry on NUGC4 cells, antibody at 0.75 µg/mL.
Experimental: as §1
Experiment [4] has as its target T2, Claudin18.1 on cells. Put plainly: flow cytometry on 293T-Claudin18.1 cells, antibody at 1.5 µg/mL.
Experimental: as §1
Experiment [5] deals with T2, Claudin18.1 on cells. The experiment in a line: flow cytometry on 293T-Claudin18.1 cells, antibody at 0.75 µg/mL.
Experimental: as §1
The target of experiment [6] is T2, Claudin18.1 on cells. Put plainly: flow cytometry on 293T-Claudin18.1 cells, antibody at 3 µg/mL.
Experimental: as §1
Experiment [7] has as its target T1, Claudin18.2 on cells. The experiment in a line: flow cytometry on 293T-Claudin18.2 cells, antibody at 0.75 µg/mL.
Experimental: as §1
Experiment [8] deals with T1, Claudin18.2 on cells. The experiment in a line: flow cytometry on 293T-Claudin18.2 cells, antibody at 0.375 µg/mL.
Experimental: as §1
In experiment [9] the target is T1, Claudin18.2 on cells. Put plainly: cell-based or functional assay.
Experiment [10] has as its target T1, Claudin18.2 on cells. Put plainly: flow cytometry on NUGC4 cells, antibody at 3 µg/mL.
Experimental: as §1
Experiment [11] addresses T1, Claudin18.2 on cells. Put plainly: flow cytometry on NUGC4 cells, antibody at 1.5 µg/mL.
Experimental: as §1
The target of experiment [12] is T1, Claudin18.2 on cells. Put plainly: cell-based or functional assay. The source holds these as a separate data set.
Experiment [13] concerns the target T1, Claudin18.2 on cells. Put plainly: flow cytometry on 293T-Claudin18.2 cells, antibody at 1.5 µg/mL.
Experimental: as §1
Experiment [14] has as its target T1, Claudin18.2 on cells. The experiment in a line: flow cytometry on NUGC4 cells, antibody at 3 µg/mL. This is another data set of the same source.
Experimental: as §1
For experiment [15], the target named is T1, Claudin18.2 on cells. Put plainly: flow cytometry on NUGC4 cells, antibody at 0.75 µg/mL. This is another data set of the same source.
Experimental: as §1
For experiment [16], the target named is T1, Claudin18.2 on cells. The experiment in a line: flow cytometry on NUGC4 cells, antibody at 1.5 µg/mL. The source holds these as a separate data set.
Experimental: as §1
Experiment [17] has as its target T1, Claudin18.2 on cells. Put plainly: cell-based or functional assay. This is another data set of the same source.
In experiment [18] the target is T1, Claudin18.2 on cells. Put plainly: flow cytometry on 293T-Claudin18.2 cells, antibody at 0.375 µg/mL. This is another data set of the same source.
Experimental: as §1
Experiment [19] has as its target T1, Claudin18.2 on cells. The experiment in a line: cell-based or functional assay. The source holds these as a separate data set.
Experiment [20] has as its target T1, Claudin18.2 on cells. Put plainly: flow cytometry on 293T-Claudin18.2 cells, antibody at 1.5 µg/mL. This is another data set of the same source.
Experimental: as §1
For experiment [21], the target named is T1, Claudin18.2 on cells. Put plainly: flow cytometry on 293T-Claudin18.2 cells, antibody at 0.75 µg/mL. This is another data set of the same source.
Experimental: as §1

Read-outs that look alike come from different tables or passages of the source.

B1: CLD389-CA802-IgG1 (antibody, V domains shown)
VH: QVQLVESGGGVVQPGRSLRLSCAASGFTFSSYAMHWVRQVPGKGLEWVAIISYDGSIKYYADSVKGQFTISRDNSKNTLSLQMNSLRPEDTAVYYCARDPTMVRGVRGMDVWGQGTTVTVSS
VL: DIQMTQSPSSLSASVGDRVTITCRASQGIRNDLGWYQQKPGKAPKLLIYAASSLQSGVPSRFSGSGSGTDFTLTISSLQPEDFATYYCLQDYNYPLTFGGGTKLEIKR
notes: Complete IgG1 made in HEK293 cells
For the molecule B1, the mean fluorescence intensity with Claudin18.2 on cells [1] stood at 1.23e+06; in the experiment with Claudin18.1 on cells [2], 96700; with Claudin18.2 on cells [3] it was 24400; with Claudin18.1 on cells [4], 163000; with Claudin18.1 on cells [5] it was 141000; with Claudin18.1 on cells [6], 194000. The mean fluorescence intensity with Claudin18.2 on cells [7] is 774000; with Claudin18.2 on cells [8] it was 495000; with Claudin18.2 on cells [10], 113000; with Claudin18.2 on cells [11] it was 58100; with Claudin18.2 on cells [13] it was 1.05e+06. Moreover, the “ADCC inhibition rate, %, antibody 0.1 µg/mL, 293T-Claudin18.2 target cells, PBMC effectors, LDH” value with Claudin18.2 on cells [9] turned out to be 25.6%. The “ADCC inhibition rate, %, antibody 1 µg/mL, 293T-Claudin18.2 target cells, PBMC effectors, LDH” value (shortened to “ADCC inhibition rate, %, antibody 1 µg/mL … LDH”) with Claudin18.2 on cells [9] is 61.4%. Further, the “ADCC inhibition rate, %, antibody 10 µg/mL, 293T-Claudin18.2 target cells, PBMC effectors, LDH” value (shortened to “ADCC inhibition rate, %, antibody 10 µg/mL … LDH”) in the experiment with Claudin18.2 on cells [9] came to 61.2%. Further, in the experiment with Claudin18.2 on cells [12], the “ADCC EC50 (µg/mL), NUGC4 target cells, Jurkat reporter effector cells, Bio-Glo” value (“ADCC EC50 (µg/mL), NUGC4 target cells” below) was determined as 15.7 µg/mL.

B2: CLD389-CA852-IgG1 (antibody, V domains shown)
VH: QVQLVESGGGVVQPGRSLRLSCAASGFTFSSYAMHWVRQAPGKGLEWVAVISYDGSKKYYADSVKGRFTISRDNSKNTLYLQMNSLRAEDTAVYYCARDPTMVRGVRGMDVWGQGTTVTVSS
VL: EIVMTQSPSTLSASIGDRVTITCRASQGIRNDLGWYQQKPGKAPKLLIYAASSLQSGVPSRFSGSGSGTDFTLTISSLQPEDFATYYCLQDYNYPLTFGGGTKVEIKR
notes: as for B1
On to B2, for which the mean fluorescence intensity amounted to 742000 with Claudin18.2 on cells [1]; 18400 with Claudin18.2 on cells [14]; 9230 in the experiment with Claudin18.2 on cells [15]; 12000 in the experiment with Claudin18.2 on cells [16]; 365000 with Claudin18.2 on cells [7]; 196000 with Claudin18.2 on cells [8]. In addition, the mean fluorescence intensity in the experiment with Claudin18.2 on cells [13] worked out at 578000. The “ADCC inhibition rate, %, antibody 0.1 µg/mL, 293T-Claudin18.2 target cells, PBMC effectors, LDH” value with Claudin18.2 on cells [9] was -0.212%. Also, the “ADCC inhibition rate, %, antibody 1 µg/mL … LDH” value with Claudin18.2 on cells [9] turned out to be 12.3%. Besides, the “ADCC inhibition rate, %, antibody 10 µg/mL … LDH” value with Claudin18.2 on cells [9] is 39.9%.

B3: CLD389-279-IgG1 (antibody, V domains shown)
VH: EVQLVQSGGGVVQPGRSLRLSCAASGFTFSNYAMHWVRQAPGKGLEWVAVISYDGSNKYYADSVKGRFTISRDNSKNTLYLQMNSLRAEDTAVYYCARELRFFDWLLGRAFDIWGQGTMVTVSS
VL: EIVMTQSPPSLSASVGDRVTITCRASQGIRNDLGWYQQKPGKAPKLLIYAASSLQSGVPSRFSGSGSGTDFTLTISSLQPEDFATYYCLQDYNYPWTFGQGTKLEIKR
notes: Complete IgG1 made in HEK293 cells; also called C279; CLD389-C279
As for B3, the mean fluorescence intensity with Claudin18.2 on cells [1] amounted to 1.24e+06; with Claudin18.2 on cells [3], 40000; with Claudin18.2 on cells [7] it was 776000; with Claudin18.2 on cells [8], 488000; with Claudin18.2 on cells [10], 158000; in the experiment with Claudin18.2 on cells [11], 78300. In the experiment with Claudin18.2 on cells [13], the mean fluorescence intensity came to 1.06e+06. In the experiment with Claudin18.2 on cells [9], the “ADCC inhibition rate, %, antibody 0.1 µg/mL, 293T-Claudin18.2 target cells, PBMC effectors, LDH” value came to 7.53%. Moreover, the “ADCC inhibition rate, %, antibody 1 µg/mL … LDH” value in the experiment with Claudin18.2 on cells [9] stood at 16.1%. The “ADCC inhibition rate, %, antibody 10 µg/mL … LDH” value in the experiment with Claudin18.2 on cells [9] amounted to 41%. Also, in the experiment with Claudin18.2 on cells [12], the “ADCC EC50 (µg/mL), NUGC4 target cells” value is 0.81 µg/mL.

B4: CLDQ1-CA841-IgG1 (antibody, V domains shown)
VH: QVQLVQSGAEVKKPGSSVKVSCKASGGTFSSYAISWVRQAPGQGLEWMGRIIPILGIANYAQKFQGRVTVTADKSTSTAYMELSSLRSEDTAVYYCARERDNWDPYYYYYGMDVWGQGTTVTVSS
VL: DIQMTQSPSTLSASVGDRVTITCRASQSINSWLAWYQQKPGKAPKLLIYKASSLESGVPSRFSGSGSGTEFTLTISSLQPDDFATYYCQQYNSFPLTFGGGTKVEIKR
notes: as for B1
B4: the mean fluorescence intensity worked out at 1.09e+06 with Claudin18.2 on cells [1]; 21500 with Claudin18.1 on cells [2]; 11100 with Claudin18.2 on cells [3]; 37900 with Claudin18.1 on cells [4]; 18100 with Claudin18.1 on cells [5]; 11000 with Claudin18.1 on cells [6]. For the same molecule, the mean fluorescence intensity with Claudin18.2 on cells [7] was determined as 583000; with Claudin18.2 on cells [8], 308000; with Claudin18.2 on cells [10], 32400; in the experiment with Claudin18.2 on cells [11], 13200; with Claudin18.2 on cells [13], 855000. Besides, the “ADCC EC50 (µg/mL), NUGC4 target cells” value with Claudin18.2 on cells [17] stood at 17.3 µg/mL. Further, the “ADCC inhibition rate, %, antibody 0.1 µg/mL, 293T-Claudin18.2 target cells, PBMC effectors, LDH” value in the experiment with Claudin18.2 on cells [9] came to 15.6%. The “ADCC inhibition rate, %, antibody 1 µg/mL … LDH” value with Claudin18.2 on cells [9] stood at 27.2%. The “ADCC inhibition rate, %, antibody 10 µg/mL … LDH” value with Claudin18.2 on cells [9] is 58.5%.

B5: IMAB362 (antibody, human IgG1, kappa, V domains shown)
VH: QVQLQQPGAELVRPGASVKLSCKASGYTFTSYWINWVKQRPGQGLEWIGNIYPSDSYTNYNQKFKDKATLTVDKSSSTAYMQLSSPTSEDSAVYYCTRSWRGNSFDYWGQGTTLTVSS
VL: DIVMTQSPSSLTVTAGEKVTMSCKSSQSLLNSGNQKNYLTWYQQKPGQPPKLLIYWASTRESGVPDRFTGSGSGTDFTLTISSVQAEDLAVYYCQNDYSYPFTFGSGTKLEIKR
For the molecule B5, the mean fluorescence intensity with Claudin18.2 on cells [18] worked out at 407000; with Claudin18.2 on cells [1], 902000; with Claudin18.2 on cells [14], 117000; in the experiment with Claudin18.2 on cells [3], 69600; in the experiment with Claudin18.2 on cells [15] it was 55400; with Claudin18.2 on cells [16], 93500. Also, the mean fluorescence intensity with Claudin18.2 on cells [20] stood at 878000; in the experiment with Claudin18.2 on cells [7], 689000; with Claudin18.2 on cells [8], 498000; with Claudin18.2 on cells [10], 131000; with Claudin18.2 on cells [11] it was 97100; with Claudin18.2 on cells [13], 849000. Further, in the experiment with Claudin18.2 on cells [21], the mean fluorescence intensity was determined as 650000. For the same molecule, in the experiment with Claudin18.2 on cells [19], the “ADCC inhibition rate, %, antibody 0.5 µg/mL, 293T-Claudin18.2 target cells, PBMC effectors, LDH” value turned out to be 18%. For the same molecule, in the experiment with Claudin18.2 on cells [19], the “ADCC inhibition rate, %, antibody 5 µg/mL, 293T-Claudin18.2 target cells, PBMC effectors, LDH” value came to 45%. Also, in the experiment with Claudin18.2 on cells [19], the “ADCC inhibition rate, %, antibody 50 µg/mL, 293T-Claudin18.2 target cells, PBMC effectors, LDH” value stood at 49%. In addition, the “ADCC EC50 (µg/mL), NUGC4 target cells” value in the experiment with Claudin18.2 on cells [17] was found to be 2.15 µg/mL; with Claudin18.2 on cells [12], 2.56 µg/mL. In the experiment with Claudin18.2 on cells [9], the “ADCC inhibition rate, %, antibody 0.1 µg/mL, 293T-Claudin18.2 target cells, PBMC effectors, LDH” value was 20.8%. For the same molecule, the “ADCC inhibition rate, %, antibody 1 µg/mL … LDH” value with Claudin18.2 on cells [9] was 41.4%. Further, in the experiment with Claudin18.2 on cells [9], the “ADCC inhibition rate, %, antibody 10 µg/mL … LDH” value was found to be 60.6%.

These data come from US20220204609A1 (SHANDONG BOAN BIOTECHNOLOGY, published 2022).
